Measurements reported in article PMC10714827.
Where two headings read alike, the source gives them in different places.

What was measured:
[1] = target: His6-sP36 purified from homologous expression in M. mazei (Methanosarcina mazei); experiment: SEC; analytical gel filtration, ENrich SEC 650; 0.5 mg untagged sP36 or 0.3 mg His6-sP36; eluted with 50 mM phosphate buffer (150 mM NaCl, pH 8.0), 1 mL/min; BioRad size-exclusion standard
[2] = target: small protein 36 (sP36), untagged, purified from heterologous expression in E. coli (Methanosarcina mazei); experiment: MST; RED-NHS-labelled untagged sP36 at 100 nM held constant (the methods say 10 nM for the AmtB1 series); AmtB1-His6 (12.5 µM to 0.38 nM) or His6-GlnK1 (7.5 µM to 0.23 nM) in 16 dilutions; concentrations on monomeric mass; standard capillaries, 100% excitation power, medium or high MST power; three biological replicates
[3] = target: PII-like protein GlnK1 with N-terminal His tag (Methanosarcina mazei) (UniProt Q8PYW7); experiment: ITC; 20 µM GlnK1 in the cell titrated with 300 µM sP36; 100 mM potassium phosphate, 2 mM EDTA, pH 7.0, 25°C; model for a single ligand binding site
[4] = target: small protein 36 (sP36), untagged, purified from heterologous expression in E. coli (Methanosarcina mazei); experiment: SEC; analytical gel filtration, ENrich SEC 650; 0.5 mg untagged sP36 or 0.3 mg His6-sP36; eluted with 50 mM phosphate buffer (150 mM NaCl, pH 8.0), 1 mL/min; BioRad size-exclusion standard
[5] = target: small protein 36 (sP36), untagged, purified from heterologous expression in E. coli (Methanosarcina mazei); experiment: MST; RED-NHS-labelled untagged sP36 at 100 nM held constant (the methods say 10 nM for the AmtB1 series); AmtB1-His6 (12.5 µM to 0.38 nM) or His6-GlnK1 (7.5 µM to 0.23 nM) in 16 dilutions; concentrations on monomeric mass; standard capillaries, 100% excitation power, medium or high MST power; three biological replicates; remark: listed apart in the source

“His6-sP36 purified from homologous expression in M. mazei (natural protein)” showed a stoichiometry N [1] of 6.

In the case of “ammonium transporter AmtB1 with C-terminal His6-tag (from UniProt Q8U4U2 1-397) (natural protein)”, the Kd [2] is reported as 260 nM.

For “small protein 36 (sP36), untagged, purified from heterologous expression in E. coli (natural protein)”, the Kd [3] was 5.4 µM, the stoichiometry N (sP36 monomers per GlnK1 monomer) [3] was 2 and the stoichiometry N [4] was 6.

B1: PII-like protein GlnK1 with N-terminal His tag (natural protein)
chain: MVAMKYVIAMIRPERLDAVKRELQKIEVSRLTVSSVSGYGAQKGYMEIYRAMEYDANLLEKIKIEIAVNDEFLEPTIEAIKTGAKGSDGYVGSGKIFVLPLENVIRIRTNETGPEAI
In the case of B1, the Kd [5] is reported as 1800 nM.
